Measured values reported in PMC9930725 (Nature, 2022).

B1: PhyB N908 fragment (domain or fragment, Arabidopsis thaliana, UniProt P14713 1-908, looked up)
chain: MVSGVGGSGGGRGGGRGGEEEPSSSHTPNNRRGGEQAQSSGTKSLRPRSNTESMSKAIQQYTVDARLHAVFEQSGESGKSFDYSQSLKTTTYGSSVPEQQITAYLSRIQRGGYIQPFGCMIAVDESSFRIIGYSENAREMLGIMPQSVPTLEKPEILAMGTDVRSLFTSSSSILLERAFVAREITLLNPVWIHSKNTGKPFYAILHRIDVGVVIDLEPARTEDPALSIAGAVQSQKLAVRAISQLQALPGGDIKLLCDTVVESVRDLTGYDRVMVYKFHEDEHGEVVAESKRDDLEPYIGLHYPATDIPQASRFLFKQNRVRMIVDCNATPVLVVQDDRLTQSMCLVGSTLRAPHGCHSQYMANMGSIASLAMAVIINGNEDDGSNVASGRSSMRLWGLVVCHHTSSRCIPFPLRYACEFLMQAFGLQLNMELQLALQMSEKRVLRTQTLLCDMLLRDSPAGIVTQSPSIMDLVKCDGAAFLYHGKYYPLGVAPSEVQIKDVVEWLLANHADSTGLSTDSLGDAGYPGAAALGDAVCGMAVAYITKRDFLFWFRSHTAKEIKWGGAKHHPEDKDDGQRMHPRSSFQAFLEVVKSRSQPWETAEMDAIHSLQLILRDSFKESEAAMNSKVVDGVVQPCRDMAGEQGIDELGAVAREMVRLIETATVPIFAVDAGGCINGWNAKIAELTGLSVEEAMGKSLVSDLIYKENEATVNKLLSRALRGDEEKNVEVKLKTFSPELQGKAVFVVVNACSSKDYLNNIVGVCFVGQDVTSQKIVMDKFINIQGDYKAIVHSPNPLIPPIFAADENTCCLEWNMAMEKLTGWSRSEVIGKMIVGEVFGSCCMLKGPDALTKFMIVLHNAIGGQDTDKFPFPFFDRNGKFVQALLTANKRVSLEGKVIGAFCFLQIPS
modifications: phytochromobilin (PΦB) bound
B2: Arabidopsis thaliana phytochrome B, full length (natural protein, UniProt P14713 1-1172, looked up)
chain: MVSGVGGSGGGRGGGRGGEEEPSSSHTPNNRRGGEQAQSSGTKSLRPRSNTESMSKAIQQYTVDARLHAVFEQSGESGKSFDYSQSLKTTTYGSSVPEQQITAYLSRIQRGGYIQPFGCMIAVDESSFRIIGYSENAREMLGIMPQSVPTLEKPEILAMGTDVRSLFTSSSSILLERAFVAREITLLNPVWIHSKNTGKPFYAILHRIDVGVVIDLEPARTEDPALSIAGAVQSQKLAVRAISQLQALPGGDIKLLCDTVVESVRDLTGYDRVMVYKFHEDEHGEVVAESKRDDLEPYIGLHYPATDIPQASRFLFKQNRVRMIVDCNATPVLVVQDDRLTQSMCLVGSTLRAPHGCHSQYMANMGSIASLAMAVIINGNEDDGSNVASGRSSMRLWGLVVCHHTSSRCIPFPLRYACEFLMQAFGLQLNMELQLALQMSEKRVLRTQTLLCDMLLRDSPAGIVTQSPSIMDLVKCDGAAFLYHGKYYPLGVAPSEVQIKDVVEWLLANHADSTGLSTDSLGDAGYPGAAALGDAVCGMAVAYITKRDFLFWFRSHTAKEIKWGGAKHHPEDKDDGQRMHPRSSFQAFLEVVKSRSQPWETAEMDAIHSLQLILRDSFKESEAAMNSKVVDGVVQPCRDMAGEQGIDELGAVAREMVRLIETATVPIFAVDAGGCINGWNAKIAELTGLSVEEAMGKSLVSDLIYKENEATVNKLLSRALRGDEEKNVEVKLKTFSPELQGKAVFVVVNACSSKDYLNNIVGVCFVGQDVTSQKIVMDKFINIQGDYKAIVHSPNPLIPPIFAADENTCCLEWNMAMEKLTGWSRSEVIGKMIVGEVFGSCCMLKGPDALTKFMIVLHNAIGGQDTDKFPFPFFDRNGKFVQALLTANKRVSLEGKVIGAFCFLQIPSPELQQALAVQRRQDTECFTKAKELAYICQVIKNPLSGMRFANSLLEATDLNEDQKQLLETSVSCEKQISRIVGDMDLESIEDGSFVLKREEFFLGSVINAIVSQAMFLLRDRGLQLIRDIPEEIKSIEVFGDQIRIQQLLAEFLLSIIRYAPSQEWVEIHLSQLSKQMADGFAAIRTEFRMACPGEGLPPELVRDMFHSSRWTSPEGLGLSVCRKILKLMNGEVQYIRESERSYFLIILELPVPRKRPLSTASGSGDMMLMMPY
modifications: phytochromobilin (PΦB) covalently linked to Cys357
B3: PhyB N982 fragment (domain or fragment, Arabidopsis thaliana, UniProt P14713 1-982, looked up)
chain: MVSGVGGSGGGRGGGRGGEEEPSSSHTPNNRRGGEQAQSSGTKSLRPRSNTESMSKAIQQYTVDARLHAVFEQSGESGKSFDYSQSLKTTTYGSSVPEQQITAYLSRIQRGGYIQPFGCMIAVDESSFRIIGYSENAREMLGIMPQSVPTLEKPEILAMGTDVRSLFTSSSSILLERAFVAREITLLNPVWIHSKNTGKPFYAILHRIDVGVVIDLEPARTEDPALSIAGAVQSQKLAVRAISQLQALPGGDIKLLCDTVVESVRDLTGYDRVMVYKFHEDEHGEVVAESKRDDLEPYIGLHYPATDIPQASRFLFKQNRVRMIVDCNATPVLVVQDDRLTQSMCLVGSTLRAPHGCHSQYMANMGSIASLAMAVIINGNEDDGSNVASGRSSMRLWGLVVCHHTSSRCIPFPLRYACEFLMQAFGLQLNMELQLALQMSEKRVLRTQTLLCDMLLRDSPAGIVTQSPSIMDLVKCDGAAFLYHGKYYPLGVAPSEVQIKDVVEWLLANHADSTGLSTDSLGDAGYPGAAALGDAVCGMAVAYITKRDFLFWFRSHTAKEIKWGGAKHHPEDKDDGQRMHPRSSFQAFLEVVKSRSQPWETAEMDAIHSLQLILRDSFKESEAAMNSKVVDGVVQPCRDMAGEQGIDELGAVAREMVRLIETATVPIFAVDAGGCINGWNAKIAELTGLSVEEAMGKSLVSDLIYKENEATVNKLLSRALRGDEEKNVEVKLKTFSPELQGKAVFVVVNACSSKDYLNNIVGVCFVGQDVTSQKIVMDKFINIQGDYKAIVHSPNPLIPPIFAADENTCCLEWNMAMEKLTGWSRSEVIGKMIVGEVFGSCCMLKGPDALTKFMIVLHNAIGGQDTDKFPFPFFDRNGKFVQALLTANKRVSLEGKVIGAFCFLQIPSPELQQALAVQRRQDTECFTKAKELAYICQVIKNPLSGMRFANSLLEATDLNEDQKQLLETSVSCEKQISRIVGD
modifications: phytochromobilin (PΦB) bound
B4: PhyB N908(L427A) (domain or fragment, Arabidopsis thaliana, UniProt P14713 1-908, looked up)
chain: MVSGVGGSGGGRGGGRGGEEEPSSSHTPNNRRGGEQAQSSGTKSLRPRSNTESMSKAIQQYTVDARLHAVFEQSGESGKSFDYSQSLKTTTYGSSVPEQQITAYLSRIQRGGYIQPFGCMIAVDESSFRIIGYSENAREMLGIMPQSVPTLEKPEILAMGTDVRSLFTSSSSILLERAFVAREITLLNPVWIHSKNTGKPFYAILHRIDVGVVIDLEPARTEDPALSIAGAVQSQKLAVRAISQLQALPGGDIKLLCDTVVESVRDLTGYDRVMVYKFHEDEHGEVVAESKRDDLEPYIGLHYPATDIPQASRFLFKQNRVRMIVDCNATPVLVVQDDRLTQSMCLVGSTLRAPHGCHSQYMANMGSIASLAMAVIINGNEDDGSNVASGRSSMRLWGLVVCHHTSSRCIPFPLRYACEFLMQAFGAQLNMELQLALQMSEKRVLRTQTLLCDMLLRDSPAGIVTQSPSIMDLVKCDGAAFLYHGKYYPLGVAPSEVQIKDVVEWLLANHADSTGLSTDSLGDAGYPGAAALGDAVCGMAVAYITKRDFLFWFRSHTAKEIKWGGAKHHPEDKDDGQRMHPRSSFQAFLEVVKSRSQPWETAEMDAIHSLQLILRDSFKESEAAMNSKVVDGVVQPCRDMAGEQGIDELGAVAREMVRLIETATVPIFAVDAGGCINGWNAKIAELTGLSVEEAMGKSLVSDLIYKENEATVNKLLSRALRGDEEKNVEVKLKTFSPELQGKAVFVVVNACSSKDYLNNIVGVCFVGQDVTSQKIVMDKFINIQGDYKAIVHSPNPLIPPIFAADENTCCLEWNMAMEKLTGWSRSEVIGKMIVGEVFGSCCMLKGPDALTKFMIVLHNAIGGQDTDKFPFPFFDRNGKFVQALLTANKRVSLEGKVIGAFCFLQIPS
modifications: phytochromobilin (PΦB) bound

What was measured:
thermal reversion rate = target: the molecule itself; assay: thermal reversion rate
SEC = target: the molecule itself; assay: SEC

Row | Protein | binding result (SEC) | other results
1 | B1 |  | Kd (thermal reversion rate): ~26 nM
2 | B2 |  | stoichiometry N (SEC): 2
3 | B3 | binds | 
4 | B4 | binds | 
